Results: US20210300992A1 (Stanford University, published 2021)
Positions count from the first letter of the chain named. Numbers in names are those of the source. Blank lines part the entries; values can stand above or below the binder they belong to.

Experiments:
[1] = target: T1, wild-type human LIFR displayed on the surface of yeast (human, UniProt P42702 45-534, limits assumed); test: yeast-displayed receptor, no LIF added, anti-Fc detection by flow cytometry
T1 construct: also called LIFR wild-type (WT); wild-type LIFR
T1 sequence: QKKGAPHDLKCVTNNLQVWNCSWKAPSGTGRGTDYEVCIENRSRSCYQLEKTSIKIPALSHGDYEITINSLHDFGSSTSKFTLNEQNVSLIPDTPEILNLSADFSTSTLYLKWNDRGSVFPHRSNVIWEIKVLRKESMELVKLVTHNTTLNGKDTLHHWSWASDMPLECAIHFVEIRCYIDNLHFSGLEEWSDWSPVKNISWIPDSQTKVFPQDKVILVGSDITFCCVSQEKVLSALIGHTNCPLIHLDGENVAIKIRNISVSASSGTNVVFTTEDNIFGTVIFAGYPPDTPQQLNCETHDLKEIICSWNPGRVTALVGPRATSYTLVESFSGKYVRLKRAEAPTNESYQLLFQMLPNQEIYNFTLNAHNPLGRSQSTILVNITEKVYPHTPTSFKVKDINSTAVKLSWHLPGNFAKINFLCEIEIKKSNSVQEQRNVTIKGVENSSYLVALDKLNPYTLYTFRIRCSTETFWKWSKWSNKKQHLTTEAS

[2] = target: T2, wild-type human gp130 CBM domain displayed on the surface of yeast (human, UniProt P40189 124-324); test: as above
T2 construct: also called gp130 wild-type (WT); wild-type gp130
T2 chain: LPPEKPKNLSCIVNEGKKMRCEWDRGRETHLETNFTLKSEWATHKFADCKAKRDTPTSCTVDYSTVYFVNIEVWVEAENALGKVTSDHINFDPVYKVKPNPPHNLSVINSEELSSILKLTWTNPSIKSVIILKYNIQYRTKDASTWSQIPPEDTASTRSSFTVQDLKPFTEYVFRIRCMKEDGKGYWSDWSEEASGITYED

human LIF-His = target: T3, human LIF-His (human, UniProt P15018 23-202); test: competition on yeast: displayed wild-type LIFR or gp130 saturated with LIF-His, inhibitor added in excess; anti-His signal normalized to LIF alone
T3 construct: also called soluble LIF-His; not shown: His6 tag
Experimental: FIG. 14 LIF inhibitors compete LIF away from wild-type receptors. Panel A: Schematic illustration of competitive binding assay. […] Human LIF-His is incubated at saturating concentrations. Inhibitors (LIFR-[…]-Fc depicted) are then co-incubated with LIF-bound yeast, in excess. LIF binding is detected via His6-tag on LIF. The less LIF that remains bound after inhibitor incubation, the better the inhibitor is able to compete LIF away from the WT receptor. Panel B: Results from competitive binding experiment. […] Fraction bound is the fluorescent emission detected from the LIF-His, normalized to No Inhibitor added. Competitive binding of LIFR-WT-Fc, gp130-ELDME-Fc (Eng.), LIFR-[…]-Fc (Eng.), LIFR-gp130 Fusion-Fc (Eng.), LIFR-gp130 Heterodimeric Fc (Eng.), Anti-LIF mAb L1, and Anti-LIF mAb G1 are shown.
Human LIF-His is introduced at saturating concentrations. Inhibitors (LIFR-[…]-Fc depicted) are then co-incubated with LIF-bound yeast, in excess. LIF binding is detected via His6-tag on LIF. The less LIF that remains bound after inhibitor incubation, the better the inhibitor is able to compete LIF away from the WT receptor.

[3] = target: T4, human leukemia inhibitory factor (LIF), soluble (human, UniProt P15018 23-202); test: cell-based or functional assay
[4] = target: T4, human leukemia inhibitory factor (LIF), …; test: KinExA, purified Fc fusion with soluble human LIF
[5] = target: T4, human leukemia inhibitory factor (LIF), …; test: KinExA with soluble human LIF; inhibitor titrated
Experimental: (§1) Binding of the purified LIF inhibitors to soluble LIF was tested using KinExA. Shown in FIG. 10 are binding results for: (1) a homodimer having a WT LIFR CBMI-Ig-like-CBMII Fc fusion as each monomer; (2) a homodimer having LIFR […] Fc as each monomer;

[6] = target: T4, human leukemia inhibitory factor (LIF), …; test: KinExA, purified Fc fusion with soluble human LIF; reference LIFR-WT-Fc
Experimental: as §1
and (3) a homodimer having LIFR-gp130 V-E fusion Fc as each monomer. KD values calculated from KinExA software and fitted curves are shown.

[7] = target: T4, human leukemia inhibitory factor (LIF), …; test: KinExA with soluble human LIF; KD calculated by the KinExA software
Experimental: as §1

[8] = target: T4, human leukemia inhibitory factor (LIF), …; test: yeast surface display titration with human LIF, flow cytometry
Experimental: (§2) Binding to human LIF was measured via fluorescent antibody detection using flow cytometry.

[9] = target: T4, human leukemia inhibitory factor (LIF), …; test: yeast surface display titration with human LIF, flow cytometry; reference yeast-displayed gp130 WT
Experimental: as §2
Results for gp130 wild-type (WT) (circles), the “8M” variant (E4K-K5R-N14D-K45E-F46L-K83R-Y95D-N100S) (squares), and the ELDME variant (mutations in FIG. 4, panel A) (triangles) are shown.

[10] = target: T4, human leukemia inhibitory factor (LIF), …; test: yeast surface display titration with human LIF, flow cytometry; reference yeast-displayed LIFR WT
Experimental: as §2
Results for LIFR wild-type (WT) (circles), the “PDD” variant (L218P-N42D-N277D) (squares), and the […] variant (mutations in FIG. 4, panel A) (triangles) are shown.

- binding result [1]: no binding
- binding result [2]: no binding
- binding result (human LIF-His): binds
B1: gp130 CBM domain (ELDME) Fc fusion homodimer (Fc fusion)
chain: LPPEKPKNLSCIVNEGKKMRCEWDRGRETHLETNFTLKSEWATHELADCKAKRDTPTSCTVDYSTVYFVNIEVWVEAENALGKVTSDHINFDPVDKVKPNPPHNLSVINSEELSSILKLTWTNPSIKSVMILKYNIQYRTKDASTWSQIPPEDTASTRSSFTVQDLKPFTEYVFRIRCMKEDGEGYWSDWSEEASGITYEDGSGSGSDKTHTCPPCPAPELLGGPSVFLFPPKPKDTLMISRTPEVTCVVVDVSHEDPQVKFNWYVDGVQVHNAKTKPREQQYNSTYRVVSVLTVLHQNWLDGKEYKCKVSNKALPAPIEKTISKAKGQPREPQVYTLPPSREEMTKNQVSLTCLVKGFYPSDIAVEWESNGQPENNYKTTPPVLDSDGSFFLYSKLTVDKSRWQQGNVFSCSVMHEALHNHYTQKSLSLSPGK
notes: also called gp130-ELDME-Fc; gp130 ELDME Fc

- IC50, inhibition of LIF derived luciferase activity in HeLa STAT3 luciferase reporter cells [3]: 0.035 nM
- fold improvement in IC50 over LIFR WT Fc, inhibition of LIF derived luciferase activity in HeLa reporter cells [3]: 53 fold
- Kd [4]: 0.023 nM
- EC50 (read off the curve) [5]: ~0.05 nM
- fold improvement in affinity over LIFR-WT-Fc [6]: 43 fold
- binding result [1]: no binding
- binding result [2]: no binding
- Kd [7]: 0.0231 nM
B2: LIFR CBMI-Ig-like-CBMII (VPRVVAID) Fc fusion homodimer (Fc fusion)
chain: QKKGAPHDLKCVTNNLQVWNCSWKAPSGTGRGTDYEVCIENRSRSCYQLEKTSIKIPALSHGDYEITINSLHDFGSSTSKFTLNEQNVSLIPDTPEILNLSADFSTSTLYLKWNDRGSVFPHRSNVIWEIKVLRKESMELVKLVTHNTTLNGKDTLHHWSWASDMPLECAIHFVEIRCYIDNLHFSGLEEWSDWSPVKNISWIPDSQTKVFPQDKVVPVGSDITFCCVSQEKVLSALIGRTDCPLIHLDGENVAIKVRNVSASASSGTNVVFITEDDIFGTVIFAGYPPDTPQGSQLNCETHDLKEIICSWNPGRVTALVGPRATSYTLVESFSGKYVRLKRAEAPTNESYQLLFQMLPNQEIYNFTLNAHNPLGRSQSTILVNITEKVYPHTPTSFKVKDINSTAVKLSWHLPGNFAKINFLCEIEIKKSNSVQEQRNVTIKGVENSSYLVALDKLNPYTLYTFRIRCSTETFWKWSKWSNKKQHLTTEASGSGSGSDKTHTCPPCPAPELLGGPSVFLFPPKPKDTLMISRTPEVTCVVVDVSHEDPQVKFNWYVDGVQVHNAKTKPREQQYNSTYRVVSVLTVLHQNWLDGKEYKCKVSNKALPAPIEKTISKAKGQPREPQVYTLPPSREEMTKNQVSLTCLVKGFYPSDIAVEWESNGQPENNYKTTPPVLDSDGSFFLYSKLTVDKSRWQQGNVFSCSVMHEALHNHYTQKSLSLSPGK

- Kd [8]: 5 nM
- fold higher affinity compared to wild-type (WT) [9]: 12 fold
B3: gp130 ELDME variant displayed on the surface of yeast (receptor)
chain: T2 chain with K45E, F46L, Y95D, I130M, K184E
notes: also called K45E-F46L-Y95D-I130M-K184E

- Kd [8]: 0.03 nM
- fold higher affinity compared to wild-type (WT) [10]: 32 fold
B4: LIFR VPRVVAID variant displayed on the surface of yeast (receptor)
chain: T1 sequence with I217V, L218P, H240R, I257V, I260V, V262A, T273I, N277D
notes: also called I217V-L218P-H240R-I257V-I206V-V262A-T2711-N277D
